Reference: PMC2865183 (Nature chemical biology, 2009)

Biological target: the molecule itself
Test: SEC

B1: VVD-36 M135I:M165I (domain or fragment, UniProt Q9C3Y6 37-186, looked up)
chain: HTLYAPGGYDIMGYLIQIMNRPNPQVELGPVDTSCALILCDLKQKDTPIVYASEAFLYMTGYSNAEVLGRNCRFLQSPDGMVKPKSTRKYVDSNTINTIRKAIDRNAEVQVEVVNFKKNGQRFVNFLTIIPVRDETGEYRYSMGFQCETE
With B1 the “fold increase in dimer affinity (against VVD-36)” value was greater than 5 fold.
